Laboratory results published in article PMC9975939.

Experiments:
[1] = target: untagged NDP52 C18, 153, 163, 321S mutant (human) (UniProt Q13137); assay: native gel or EMSA; blue native PAGE (4–16% NativePAGE gel, Coomassie G-250) of recombinant NDP52 WT and Mut, immunoblot
[2] = target: FIP200-GFP; assay: bead recruitment assay (confocal imaging of FIP200-GFP on beads); conditions: glutathione Sepharose beads coated with GST-4xUb, incubated with untagged NDP52 and FIP200-GFP; read off a plot
[3] = target: His-Flag-NDP52 C18, 153, 163, 321S (human) (UniProt Q13137); assay: native gel or EMSA; blue native PAGE of lysates (30 μg; 20 mM Bis-Tris pH 7.2, 40 mM NaCl, 10% glycerol, 0.5% NP-40) of HeLa PentaKO cells stably expressing NDP52 WT or Mut, immunoblot

untagged NDP52 C18, 153, 163, 321S mutant (from UniProt Q13137 1-446) (natural protein)
stoichiometry N [1]: 2

untagged NDP52 wild type mutant C18S; C153S; C163S; C321S [human] / FIP200-GFP [not stated] chain 1 C18S, chain 1 C153S, chain 1 C163S, chain 1 C321S
percent of parent [2]: 93%

His-Flag-NDP52 C18, 153, 163, 321S (from UniProt Q13137 1-446) (natural protein)
stoichiometry N [3]: 2
